The source of these data is US7230085B2, “Anti-DOTA antibody” (Immunomedics, Inc., priority 2001, dated 2007).

The nature of data set [1]: Isoelectric focusing of purified LG1. In kind it is physicochemical. The method, then:
LG1 cells are expanded and adapted to grow in H-SFM media in serum-free conditions. The antibody LG1 is isolated from the culture media by affinity chromatography on Protein G Sepharose with a yield of ^˜50 mg of IgG per liter of culture media. The purified antibody is analyzed by SDS polyacrylamide electrophoresis, isoelectric focusing, and its isotype is determined by ELISA with a commercially available kit (Southern Biotechnology, Birmingham, Ala.).

Data set [2] has as its system metal complexes of DOTA-hLL2. Description: ELISA binding of LG1 to DOTA-hLL2 metal complexes. As for the experimental part:
Immunocompetent mice were immunized mice with the macrocyclic chelate DOTA, previously coupled to a humanized immunoglobulin (hIgG). A number of mice were injected and the harvested splenocytes fused with the mouse myeloma cell line SP2/0, according to a standard technique. A total of 1800 clones were screened by ELISA for reactivity with DOTA-conjugated hIgG and hIgG alone. Initially, 25 clones were identified as secreting an IgG that bound to the IgG-DOTA conjugate, but not to the IgG. After being sub-cloned three times, only one hybrid, termed LG1, remained positive and this was adapted to grow in serum-free media. […] LG1 was purified from culture supernatant with a yield of ^˜50 mg/liter of media. […] These metals include gadolinium, gallium, indium, lead, lutetium and yttrium. Additionally, LG1 has a high affinity for a variety of DOTA compounds, showing strong reactivity starting at concentrations of ^˜1 ng/mL (^˜10^−9M), compared to previously produced anti-DOTA antibodies that had affinities measured in microgram amounts.
(§1) LG1 is tested by ELISA for binding to hLL2 and a panel of different metal complexes of DOTA-hLL2. The capture proteins are diluted to 10 μg/ml, and dilutions of LG1 are assayed. Binding is shown using a peroxidase-conjugated goat anti-mouse IgG Fc specific antibody.
A general note: An ELISA detects its analyte on a solid surface through an enzyme-linked reagent.

Data set [3] deals with hLL2-DOTA. The data set can be described thus: Qualitative binding on size-exclusion HPLC. Conditions: SE-HPLC. The source says: (§2) The msAb, LG1×hMN-14 (Fab′×Fab) is shown by the same analysis to bind to hLL2-DOTA-yttrium.
In general terms: Size exclusion chromatography separates by hydrodynamic size, large species first.

In data set [4] the test system is hLL2. The data set can be described thus: Qualitative binding on size-exclusion HPLC. Conditions: SE-HPLC.
From the text: as §2

In data set [5] the test system is hLL2-DOTA-yttrium. Description: Qualitative binding on size-exclusion HPLC. Conditions: SE-HPLC.
From the text: as §2

For data set [6], the system named is hMN-14-DOTA-yttrium-90. Description: Qualitative binding on size-exclusion HPLC. Conditions: SE-HPLC.
Data set [7] has as its system biotin-D-Phe-D-Lys(DOTA-indium-111). The data set can be described thus: Qualitative binding on size-exclusion HPLC. As to conditions: epsilon-linked indium-DOTA.
From the text: (§3) To determine the essential features that are important to elicit LG1 binding, labeled DOTA (indium-111) was linked to a hapten, via lysine residues, on either the alpha (DOTA-Lys(HSG)-D-Tyr-Lys(HSG)-NH2) or epsilon (biotin-D-Phe-D-Lys[DOTA]) positions of one of the DOTA carboxy groups. LG1 did bind the epsilon-linked indium-DOTA, but not the alpha-linked indium DOTA. […] Thus, the antibody of the current invention is “universal” in that it may bind to any DOTA-metal complex with a pendant N-alkylacetamide group, regardless of the type of metal with which DOTA is complexed. As used herein, the phrases “universal anti-DOTA antibody” or “universally binds” are used to mean an antibody that binds to any DOTA or DOTA-metal complex with a pendant N-alkylacetamide group.
as §2

Data set [8] relates to indium-111-DOTA-Phe-Lys(HSG)-D-Tyr-Lys(HSG)-NH2. Description: Qualitative binding on size-exclusion HPLC.
From the text: as §3, §2

The test system of data set [9] is indium-DOTA alone. Description: LG1 binding to indium-DOTA alone.
From the text: as §3

In data set [10] the test system is BSA-DOTA-Yttrium. The data set can be described thus: Inhibition of LG1 binding to BSA-DOTA-Yttrium by hLL2-DOTA metal complexes (ELISA). As to conditions: LG1 0.1 μg/ml; inhibitors 10 to 0.0001 μg/ml. As for the experimental part: The binding of LG1 to BSA-DOTA-Yttrium is also tested in the presence of a panel of hLL2-DOTA metal complexes by incubating LG1 at concentration 0.1 μg/ml with hLL2 and the DOTA-hLL2 conjugates, at concentration 10 to 0.0001 μg/ml, and then adding to ELISA plates coated with BSA-DOTA-Yttrium.

Data set [11] has as its system hLL2. The data set can be described thus: ELISA binding of LG1 to hLL2. The method, then: as §1

Values joined by “and” are separate entries in the source; they are usually repeats but may differ in a detail not shown here. Identical values can stand only once. “Also recorded” adds a separate entry of the source.

B1: LG1: murine monoclonal anti-DOTA antibody, IgG2b with a lambda light chain (antibody, V domains shown)
VH: EVMLVESGGGLVKPGGSLTLSCAASGFTFTAHAMSWVRQTPEKRLEWVATISGGGTYTYFPDSFQGRFTISSDNAKNTLYLQMSSLRSEDTSMYFCTRHGDYRYAFGYWGQGTLVTVSA
VL: VVTQESALTTSPGETVTLTCRSSSGAVTTNNYANWVQEKPDHLFTGLIGGTNNRAPGVPARFSGSLIGDKAALTITGAQTEDEAIYFCALWFSDHWVFGGGTELTVLG
As to B1, the PI in [1] is on record as 5.85-6.85. The “binding to DOTA-hLL2 and its metal complexes” value in data set [2] (ELISA, gadolinium, gallium, indium, lead, lutetium, yttrium and no metal) is “Equivalent binding; also recorded: Identical binding; also recorded: bind equally; also recorded: bind equivalently well; also recorded: binds to gadolinium-DOTA complexes as well as it binds to the yttrium-DOTA complexes”. Moreover, the “concentration at which strong reactivity starts” value in data set [2] (ELISA, variety of DOTA compounds) was ~1 ng/mL and ~10^−9 M. Further, the Kd in data set [2] (estimated by ELISA method to determine ligand binding affinity, read-out: affinity towards many different metal-DOTA complexes) was 0.001 to 0.1 nM. Moreover, the “binding to hLL2-DOTA” value in [3] is listed as “positive binding”. In data set [4], the “binding to hLL2 itself” value is “no binding”. Also, the “binding to hLL2-DOTA-yttrium” value in [5] was “positive binding”. In data set [6], the “binding to hMN-14-DOTA-yttrium-90” value is on record as “positive binding”. Also, the “binding to biotin-D-Phe-D-Lys(DOTA-indium-111)” value in [7] is “positive binding; also recorded: did bind”. For the same molecule, the “binding to alpha-amino-linked indium-111-DOTA peptide” value in data set [8] is “no binding and not”. Also, the “binding to indium-DOTA alone” value in [9] is “did not bind”. The “specificity in inhibition assay” value in data set [10] was “anti-DOTA specific, independent of the metal being bound in the chelate ring”. Moreover, in data set [11], the “binding to hLL2” value is reported as “no binding”.
